Starred links: 1 amine or outer side, 2 acyl side, 3 side chain; linkers in the order of their positions; H or OH if unused. Non-standard residues stand in square brackets, D forms with d. *: point of attachment. Pipz(1-CH2CO,4-CH2CH2NH) = O=C(CN1CCN(CCN[*:1])CC1)[*:2]; C18 diacid = O=C(O)CCCCCCCCCCCCCCCCC(=O)*; γGlu = O=C(O)[C@H](CCC(=O)[*:2])N[*:1]; 4Pal = N[C@@H](Cc1ccncc1)C(=O)O; NMeL = CN[C@@H](CC(C)C)C(=O)O; Nle = CCCC[C@H](N)C(=O)O; Sar = CNCC(=O)O
T1: human neuromedin U receptor 1 (human, UniProt Q9HB89 24-426)
T1 sequence (looked up): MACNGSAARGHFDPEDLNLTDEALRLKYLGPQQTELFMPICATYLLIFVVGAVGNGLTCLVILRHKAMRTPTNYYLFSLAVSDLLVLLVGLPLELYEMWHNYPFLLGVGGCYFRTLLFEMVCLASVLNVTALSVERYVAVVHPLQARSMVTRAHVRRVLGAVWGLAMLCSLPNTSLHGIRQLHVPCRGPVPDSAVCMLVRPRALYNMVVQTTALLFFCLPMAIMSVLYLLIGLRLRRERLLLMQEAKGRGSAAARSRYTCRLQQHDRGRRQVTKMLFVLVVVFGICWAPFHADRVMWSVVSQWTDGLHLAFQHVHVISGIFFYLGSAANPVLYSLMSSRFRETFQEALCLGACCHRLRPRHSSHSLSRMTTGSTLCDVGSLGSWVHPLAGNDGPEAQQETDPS

B1: C18DA-gGlu3-Sar12-AEPipAc-Tyr-Phe-NMeLeu-Nle-NMeArg-NMeAla-Arg-Gly-NH2 (peptide)
peptide: EEEXXXXXXXXXXXXXYFLXRARG
HELM: PEPTIDE1{[O=C(O)CCCCCCCCCCCCCCCCC(=O)[*:2]].[gGlu].[gGlu].[gGlu].[Sar].[Sar].[Sar].[Sar].[Sar].[Sar].[Sar].[Sar].[Sar].[Sar].[Sar].[Sar].[O=C(CN1CCN(CCN[*:1])CC1)[*:2]].Y.F.[meL].[Nle].[meR].[meA].R.G.[am]}$$$$V2.0
SMILES: CCCC[C@H](NC(=O)[C@H](CC(C)C)N(C)C(=O)[C@H](Cc1ccccc1)NC(=O)[C@H](Cc1ccc(O)cc1)NC(=O)CN1CCN(CCNC(=O)CN(C)C(=O)CN(C)C(=O)CN(C)C(=O)CN(C)C(=O)CN(C)C(=O)CN(C)C(=O)CN(C)C(=O)CN(C)C(=O)CN(C)C(=O)CN(C)C(=O)CN(C)C(=O)CN(C)C(=O)CC[C@H](NC(=O)CC[C@H](NC(=O)CC[C@H](NC(=O)CCCCCCCCCCCCCCCCC(=O)O)C(=O)O)C(=O)O)C(=O)O)CC1)C(=O)N(C)[C@@H](CCCNC(=N)N)C(=O)N(C)[C@@H](C)C(=O)N[C@@H](CCCNC(=N)N)C(=O)NCC(N)=O
B2: C20DA-gGlu4-Sar12-AEPipAc-Tyr-Phe-NMeLeu-Nle-Arg-Pro-Arg-Gly-NH2 (peptide)
peptide: EEEEXXXXXXXXXXXXXYFLXRPRG
HELM: PEPTIDE1{[O=C(O)CCCCCCCCCCCCCCCCCCC(=O)[*:2]].[gGlu].[gGlu].[gGlu].[gGlu].[Sar].[Sar].[Sar].[Sar].[Sar].[Sar].[Sar].[Sar].[Sar].[Sar].[Sar].[Sar].[O=C(CN1CCN(CCN[*:1])CC1)[*:2]].Y.F.[meL].[Nle].R.P.R.G.[am]}$$$$V2.0
SMILES: CCCC[C@H](NC(=O)[C@H](CC(C)C)N(C)C(=O)[C@H](Cc1ccccc1)NC(=O)[C@H](Cc1ccc(O)cc1)NC(=O)CN1CCN(CCNC(=O)CN(C)C(=O)CN(C)C(=O)CN(C)C(=O)CN(C)C(=O)CN(C)C(=O)CN(C)C(=O)CN(C)C(=O)CN(C)C(=O)CN(C)C(=O)CN(C)C(=O)CN(C)C(=O)CN(C)C(=O)CC[C@H](NC(=O)CC[C@H](NC(=O)CC[C@H](NC(=O)CC[C@H](NC(=O)CCCCCCCCCCCCCCCCCCC(=O)O)C(=O)O)C(=O)O)C(=O)O)C(=O)O)CC1)C(=O)N[C@@H](CCCNC(=N)N)C(=O)N1CCC[C@H]1C(=O)N[C@@H](CCCNC(=N)N)C(=O)NCC(N)=O
B3: C20DA-gGlu4-Sar12-AEPipAc-Tyr-Phe-NMeLeu-Nle-Orn-Pro-Arg-Gly-NH2 (peptide)
peptide: EEEEXXXXXXXXXXXXXYFLXXPRG
HELM: PEPTIDE1{[O=C(O)CCCCCCCCCCCCCCCCCCC(=O)[*:2]].[gGlu].[gGlu].[gGlu].[gGlu].[Sar].[Sar].[Sar].[Sar].[Sar].[Sar].[Sar].[Sar].[Sar].[Sar].[Sar].[Sar].[O=C(CN1CCN(CCN[*:1])CC1)[*:2]].Y.F.[meL].[Nle].[Orn].P.R.G.[am]}$$$$V2.0
SMILES: CCCC[C@H](NC(=O)[C@H](CC(C)C)N(C)C(=O)[C@H](Cc1ccccc1)NC(=O)[C@H](Cc1ccc(O)cc1)NC(=O)CN1CCN(CCNC(=O)CN(C)C(=O)CN(C)C(=O)CN(C)C(=O)CN(C)C(=O)CN(C)C(=O)CN(C)C(=O)CN(C)C(=O)CN(C)C(=O)CN(C)C(=O)CN(C)C(=O)CN(C)C(=O)CN(C)C(=O)CC[C@H](NC(=O)CC[C@H](NC(=O)CC[C@H](NC(=O)CC[C@H](NC(=O)CCCCCCCCCCCCCCCCCCC(=O)O)C(=O)O)C(=O)O)C(=O)O)C(=O)O)CC1)C(=O)N[C@@H](CCCN)C(=O)N1CCC[C@H]1C(=O)N[C@@H](CCCNC(=N)N)C(=O)NCC(N)=O
B4: C18DA-gGlu4-Sar12-AEPipAc-Tyr-Phe-NMeLeu-Nle-Dbu-Pro-Arg-Gly-NH2 (peptide)
peptide: EEEEXXXXXXXXXXXXXYFLXXPRG
HELM: PEPTIDE1{[O=C(O)CCCCCCCCCCCCCCCCC(=O)[*:2]].[gGlu].[gGlu].[gGlu].[gGlu].[Sar].[Sar].[Sar].[Sar].[Sar].[Sar].[Sar].[Sar].[Sar].[Sar].[Sar].[Sar].[O=C(CN1CCN(CCN[*:1])CC1)[*:2]].Y.F.[meL].[Nle].[Dab].P.R.G.[am]}$$$$V2.0
SMILES: CCCC[C@H](NC(=O)[C@H](CC(C)C)N(C)C(=O)[C@H](Cc1ccccc1)NC(=O)[C@H](Cc1ccc(O)cc1)NC(=O)CN1CCN(CCNC(=O)CN(C)C(=O)CN(C)C(=O)CN(C)C(=O)CN(C)C(=O)CN(C)C(=O)CN(C)C(=O)CN(C)C(=O)CN(C)C(=O)CN(C)C(=O)CN(C)C(=O)CN(C)C(=O)CN(C)C(=O)CC[C@H](NC(=O)CC[C@H](NC(=O)CC[C@H](NC(=O)CC[C@H](NC(=O)CCCCCCCCCCCCCCCCC(=O)O)C(=O)O)C(=O)O)C(=O)O)C(=O)O)CC1)C(=O)N[C@@H](CCN)C(=O)N1CCC[C@H]1C(=O)N[C@@H](CCCNC(=N)N)C(=O)NCC(N)=O
B5: C18DA-gGlu4-Sar12-AEPipAc-Tyr-Phe-NMeLeu-Nle-Orn-Pro-Arg-Gly-NH2 (peptide)
peptide: EEEEXXXXXXXXXXXXXYFLXXPRG
HELM: PEPTIDE1{[O=C(O)CCCCCCCCCCCCCCCCC(=O)[*:2]].[gGlu].[gGlu].[gGlu].[gGlu].[Sar].[Sar].[Sar].[Sar].[Sar].[Sar].[Sar].[Sar].[Sar].[Sar].[Sar].[Sar].[O=C(CN1CCN(CCN[*:1])CC1)[*:2]].Y.F.[meL].[Nle].[Orn].P.R.G.[am]}$$$$V2.0
SMILES: CCCC[C@H](NC(=O)[C@H](CC(C)C)N(C)C(=O)[C@H](Cc1ccccc1)NC(=O)[C@H](Cc1ccc(O)cc1)NC(=O)CN1CCN(CCNC(=O)CN(C)C(=O)CN(C)C(=O)CN(C)C(=O)CN(C)C(=O)CN(C)C(=O)CN(C)C(=O)CN(C)C(=O)CN(C)C(=O)CN(C)C(=O)CN(C)C(=O)CN(C)C(=O)CN(C)C(=O)CC[C@H](NC(=O)CC[C@H](NC(=O)CC[C@H](NC(=O)CC[C@H](NC(=O)CCCCCCCCCCCCCCCCC(=O)O)C(=O)O)C(=O)O)C(=O)O)C(=O)O)CC1)C(=O)N[C@@H](CCCN)C(=O)N1CCC[C@H]1C(=O)N[C@@H](CCCNC(=N)N)C(=O)NCC(N)=O
B6: C18DA-gGlu2-Sar9-AEPipAc-Tyr-Phe-NMeLeu-Nle-Orn-NMeAla-Arg-Gly-NH2 (peptide)
peptide: EEXXXXXXXXXXYFLXXARG
HELM: PEPTIDE1{[O=C(O)CCCCCCCCCCCCCCCCC(=O)[*:2]].[gGlu].[gGlu].[Sar].[Sar].[Sar].[Sar].[Sar].[Sar].[Sar].[Sar].[Sar].[O=C(CN1CCN(CCN[*:1])CC1)[*:2]].Y.F.[meL].[Nle].[Orn].[meA].R.G.[am]}$$$$V2.0
SMILES: CCCC[C@H](NC(=O)[C@H](CC(C)C)N(C)C(=O)[C@H](Cc1ccccc1)NC(=O)[C@H](Cc1ccc(O)cc1)NC(=O)CN1CCN(CCNC(=O)CN(C)C(=O)CN(C)C(=O)CN(C)C(=O)CN(C)C(=O)CN(C)C(=O)CN(C)C(=O)CN(C)C(=O)CN(C)C(=O)CN(C)C(=O)CC[C@H](NC(=O)CC[C@H](NC(=O)CCCCCCCCCCCCCCCCC(=O)O)C(=O)O)C(=O)O)CC1)C(=O)N[C@@H](CCCN)C(=O)N(C)[C@@H](C)C(=O)N[C@@H](CCCNC(=N)N)C(=O)NCC(N)=O
B7: C18DA-gGlu3-Sar15-AEPipAc-Tyr-Phe-NMeLeu-Nle-4Pal-Pro-Arg-Gly-NH2 (peptide)
peptide: {C18 diacid}-[γGlu][γGlu][γGlu][Sar][Sar][Sar][Sar][Sar][Sar][Sar][Sar][Sar][Sar][Sar][Sar][Sar][Sar][Sar][Pipz(1-CH2CO,4-CH2CH2NH)]YF[NMeL][Nle][4Pal]PRG-NH2
SMILES: CCCC[C@H](NC(=O)[C@H](CC(C)C)N(C)C(=O)[C@H](Cc1ccccc1)NC(=O)[C@H](Cc1ccc(O)cc1)NC(=O)CN1CCN(CCNC(=O)CN(C)C(=O)CN(C)C(=O)CN(C)C(=O)CN(C)C(=O)CN(C)C(=O)CN(C)C(=O)CN(C)C(=O)CN(C)C(=O)CN(C)C(=O)CN(C)C(=O)CN(C)C(=O)CN(C)C(=O)CN(C)C(=O)CN(C)C(=O)CN(C)C(=O)CC[C@H](NC(=O)CC[C@H](NC(=O)CC[C@H](NC(=O)CCCCCCCCCCCCCCCCC(=O)O)C(=O)O)C(=O)O)C(=O)O)CC1)C(=O)N[C@@H](Cc1ccncc1)C(=O)N1CCC[C@H]1C(=O)N[C@@H](CCCNC(=N)N)C(=O)NCC(N)=O
B8: C18DA-gGlu3-Sar15-AEPipAc-Tyr-Phe-NMeLeu-Nle-Lys-Pro-Arg-Gly-NH2 (peptide)
peptide: EEEXXXXXXXXXXXXXXXXYFLXKPRG
HELM: PEPTIDE1{[O=C(O)CCCCCCCCCCCCCCCCC(=O)[*:2]].[gGlu].[gGlu].[gGlu].[Sar].[Sar].[Sar].[Sar].[Sar].[Sar].[Sar].[Sar].[Sar].[Sar].[Sar].[Sar].[Sar].[Sar].[Sar].[O=C(CN1CCN(CCN[*:1])CC1)[*:2]].Y.F.[meL].[Nle].K.P.R.G.[am]}$$$$V2.0
SMILES: CCCC[C@H](NC(=O)[C@H](CC(C)C)N(C)C(=O)[C@H](Cc1ccccc1)NC(=O)[C@H](Cc1ccc(O)cc1)NC(=O)CN1CCN(CCNC(=O)CN(C)C(=O)CN(C)C(=O)CN(C)C(=O)CN(C)C(=O)CN(C)C(=O)CN(C)C(=O)CN(C)C(=O)CN(C)C(=O)CN(C)C(=O)CN(C)C(=O)CN(C)C(=O)CN(C)C(=O)CN(C)C(=O)CN(C)C(=O)CN(C)C(=O)CC[C@H](NC(=O)CC[C@H](NC(=O)CC[C@H](NC(=O)CCCCCCCCCCCCCCCCC(=O)O)C(=O)O)C(=O)O)C(=O)O)CC1)C(=O)N[C@@H](CCCCN)C(=O)N1CCC[C@H]1C(=O)N[C@@H](CCCNC(=N)N)C(=O)NCC(N)=O

molecular target: T1, human neuromedin U receptor 1; experiment: cell-based or functional assay

Binder | EC50 (hNMUR1) buffer [nM]
B1 | 1300
B2 | 190
B3 | 950
B4 | 1300
B5 | 870
B6 | > 1000
B7 | > 1000
B8 | > 1000

Reference: patent publication US20240279278A1, “NMU RECEPTOR 2 AGONISTS” (Boehringer Ingelheim International GmbH, priority 2023, published 2024)
